# Assay results: publication PMC7939390 (The Journal of Biological Chemistry, 2020)
# B1: PBP1b^R141A/R397A (protein)
# chain: MAGNDREPIGRKGKPTRPVKQKVSRRRYEDDDDYDDYDDYEDEEPMPRKGKGKGKGRKPRGKRGWLWLLLKLAIVFAVLIAIYGVYLDQKIRSRIDGKVWQLPAAVYGRMVNLEPDMTISKNEMVKLLEATQYRQVSKMTAPGEFTVQANSIEMIRRPFDFPDSKEGQVRARLTFDGDHLATIVNMENNRQFGFFRLDPRLITMISSPNGEQRLFVPRSGFPDLLVDTLLATEDRHFYEHDGISLYSIGRAVLANLTAGRTVQGASTLTQQLVKNLFLSSERSYWRKANEAYMALIMDARYSKDRILELYMNEVYLGQSGDNEIRGFPLASLYYFGRPVEELSLDQQALLVGMVKGASIYNPWRNPKLALERRNLVLRLLQQQQIIDQELYDMLSAAPLGVQPRGGVISPQPAFMQLVRQELQAKLGDKVKDLSGVKIFTTFDSVAQDAAEKAAVEGIPALKKQRKLSDLETAIVVVDRFSGEVRAMVGGSEPQFAGYNRAMQARRSIGSLAKPATYLTALSQPKIYRLNTWIADAPIALRQPNGQVWSPQNDDRRYSESGRVMLVDALTRSMNVPTVNLGMALGLPAVTETWIKLGVPKDQLHPVPAMLLGALNLTPIEVAQAFQTIASGGNRAPLSALRSVIAEDGKVLYQSFPQAERAVPAQAAYLTLWTMQQVVQRGTGRQLGAKYPNLHLAGKTGTTNNNVDTWFAGIDGSTVTITWVGRDNNQPTKLYGASGAMSIYQRYLANQTPTPLNLVPPEDIADMGVDYDGNFVCSGGMRILPVWTSDPQSLCQQSEMQQQPSGNPFDQSSQPQQQPQQQPAQQEQKDSDGVAGWIKDMFGSN
# B2: FtsN: full-length E. coli cell division protein FtsN (protein)
# chain: MAQRDYVRRSQPAPSRRKKSTSRKKQRNLPAVSPAMVAIAAAVLVTFIGGLYFITHHKKEESETLQSQKVTGNGLPPKPEERWRYIKELESRQPGVRAPTEPSAGGEVKTPEQLTPEQRQLLEQMQADMRQQPTQLVEVPWNEQTPEQRQQTLQRQRQAQQLAEQQRLAQQSRTTEQSWQQQTRTSQAAPVQAQPRQSKPASSQQPYQDLLQTPAHTTAQSKPQQAAPVARAADAPKPTAEKKDERRWMVQCGSFRGAEQAETVRAQLAFEGFDSKITTNNGWNRVVIGPVKGKENADSTLNRLKMAGHTNCIRLAAGG
# modifications: left off: His, end not stated, kept
# B3: FtsN^W83L (protein, UniProt P29131 1-319, looked up, variant W83L)
# Cell division protein FtsN: MAQRDYVRRSQPAPSRRKKSTSRKKQRNLPAVSPAMVAIAAAVLVTFIGGLYFITHHKKEESETLQSQKVTGNGLPPKPEERLRYIKELESRQPGVRAPTEPSAGGEVKTPEQLTPEQRQLLEQMQADMRQQPTQLVEVPWNEQTPEQRQQTLQRQRQAQQLAEQQRLAQQSRTTEQSWQQQTRTSQAAPVQAQPRQSKPASSQQPYQDLLQTPAHTTAQSKPQQAAPVARAADAPKPTAEKKDERRWMVQCGSFRGAEQAETVRAQLAFEGFDSKITTNNGWNRVVIGPVKGKENADSTLNRLKMAGHTNCIRLAAGG
# Legend:
# [1] = test system: E. coli EJ801 (ΔponB-ponA^ts); experiment: complementation assay of E. coli EJ801 (ΔponB-ponA^ts); type: cell-based, Escherichia coli; details: 42 °C, 4 h, plasmids carrying ponB or mutants, LB 10 g/liter or low salt 0.5 g/liter comparable
# Procedure: To test the activity of the PBP1b mutants in vivo, we tested their ability to complement E. coli strain EJ801, which lacks PBP1b and has a thermosensitive PBP1a ([33]). EJ801 cells were transformed with the corresponding plasmids and grown in LB at 30 °C with 50 µg/ml kanamycin. The preculture was then diluted in 30 ml of fresh LB ([…] NaCl) or LB with […] NaCl medium to an A600nm value of 0.04 and grown at 30 °C until A600nm = 0.1–0.3, and the absorbance of the culture was monitored for 4 h at 42 °C.
# [2] = test system: E. coli EJ801 (ΔponB-ponA^ts); experiment: microscopy of EJ801 cells, cell morphology and length; type: cell-based, Escherichia coli; design: cell length L: unit not given here
# Procedure: Samples were taken from the complementation cultures (42 °C) at different time (1-h intervals), and the cells were fixed as described ([63]). Photographs were taken with a cooled AxioCam MRm (Zeiss) mounted on a Zeiss Axio Imager. Z1 microscope, and the images were acquired in phase-contrast mode using the AxioVision Rel. 4.5 (Zeiss) software. The cell morphologies analysis were determined using ImageJ software (RRID:SCR_003070) running under plugin ObjectJ (RRID:SCR_019190).
# PBP1b^R141A/R397A = type: biochemical, Escherichia coli; details: dansyl-lipid II, continuous fluorescence assay; means ± S.D. of three experiments
# Procedure: The error bars represent the values as means ± S.D. of three experiments.
# (§3) The GTase activity assays with dansyl-lipid II as substrate were performed in a medium binding black 96-well microplate (Greiner Bio One) as described ([57]). The samples contained 10 μM dansyl-lipid II, 50 mM HEPES-NaOH, pH 7.5, 200 mM NaCl, 10 mM CaCl2, 0.085% of decyl-PEG, 20% of DMSO, and 1 unit of N-acetylmuramidase of Streptomyces globisporus (Sigma). […] The reactions were initiated by the addition of 30 nM PBP1bγ (100 nM for PBP1a) and monitored by following the fluorescence decrease over 20 min at 30 °C using an Infinite 200 PRO microplate reader (Tecan, Männedorf, Switzerland) with excitation wavelength at 340 nm and emission at 520 nm.
# activity of the PBP1bWT and PBP1bR141A-R397A was monitored in the presence or the absence of LpoB by
# continuous fluorescence assay using dansyl-lipid II (LII) as substrate. The error bars represent the values
# [3] = thermal stability of PBP1b^R141A-R397A at 42 °C: GTase activity; type: biochemical; details: 1 h at 42 °C versus 30 °C, dansyl-lipid II, mean ± s.d. of three experiments (Fig. S1A)
# Procedure: (§1) Figure S1. Stability of the double mutant PBP1bR141A-R397A at 42°C. (A) The purified protein was incubated at 30°C or 42°C for 1 h and its GTase activity was monitored at the same temperature by continuous fluorescence assay using dansyl -lipid II (LII) as substrate. The error bars represent the values as mean ± s.d. of three experiments. (B) after 1h at 30°C or 42°C the protein ( 7 µg) was labelled with Bocillin FL (50 µM) for 30 min at the same temperature and analyzed by SDS-PAGE followed by fluorescence imaging (right) and Coomassie blue staining (left). 1bWT and 1bRR depict PBP1b wild-type and PBP1b double mutant R141A-R397A, respectively. M, Molecular mass marker. […]
# [4] = thermal stability of PBP1b^R141A-R397A at 42 °C: Bocillin binding; details: 1 h at 42 °C versus 30 °C, 7 µg protein, Bocillin FL 50 µM 30 min, SDS-PAGE (Fig. S1B)
# Procedure: as §1
# TPase domain of PBP1b = details: 2.0 mM S2d, 1.2 μM PBP1b, FtsN 2 μM, 50 mM phosphate pH 7.0, 37 °C, 3.2 mM 4,4′-dithiodipyridine, absorbance 330 nm; representative of three independent experiments
# Procedure: The activity of the TPase domain of PBP1b was measured in the presence of S2d (analog of the peptide moiety) as a mimic of donor substrates as previously described ([58], [59]). The assay was performed in a UV-Star 96-well microplate (Greiner Bio One) at 37 °C in the presence of 50 mM phosphate buffer, pH 7.0, 2.0 mM S2d, 3.2 mM 4,4′-dithiodipyridine, and 1.2 μM PBP1b. The absorbance at 330 nm was monitored with an Infinite M200 Pro microplate reader (Tecan, Männedorf, Switzerland). FtsN was used at 2 μM to test its effect on the PBP1b activity.
# PBP1b [5] = target: T1, PBP1b (Escherichia coli, UniProt P02919); details: peptide versus full-length FtsN protein; 10 μM dansyl-lipid II, 30 nM PBP1bγ, pH 7.5, 30 °C
# T1 sequence (P02919 1-799 isoform P02919-2): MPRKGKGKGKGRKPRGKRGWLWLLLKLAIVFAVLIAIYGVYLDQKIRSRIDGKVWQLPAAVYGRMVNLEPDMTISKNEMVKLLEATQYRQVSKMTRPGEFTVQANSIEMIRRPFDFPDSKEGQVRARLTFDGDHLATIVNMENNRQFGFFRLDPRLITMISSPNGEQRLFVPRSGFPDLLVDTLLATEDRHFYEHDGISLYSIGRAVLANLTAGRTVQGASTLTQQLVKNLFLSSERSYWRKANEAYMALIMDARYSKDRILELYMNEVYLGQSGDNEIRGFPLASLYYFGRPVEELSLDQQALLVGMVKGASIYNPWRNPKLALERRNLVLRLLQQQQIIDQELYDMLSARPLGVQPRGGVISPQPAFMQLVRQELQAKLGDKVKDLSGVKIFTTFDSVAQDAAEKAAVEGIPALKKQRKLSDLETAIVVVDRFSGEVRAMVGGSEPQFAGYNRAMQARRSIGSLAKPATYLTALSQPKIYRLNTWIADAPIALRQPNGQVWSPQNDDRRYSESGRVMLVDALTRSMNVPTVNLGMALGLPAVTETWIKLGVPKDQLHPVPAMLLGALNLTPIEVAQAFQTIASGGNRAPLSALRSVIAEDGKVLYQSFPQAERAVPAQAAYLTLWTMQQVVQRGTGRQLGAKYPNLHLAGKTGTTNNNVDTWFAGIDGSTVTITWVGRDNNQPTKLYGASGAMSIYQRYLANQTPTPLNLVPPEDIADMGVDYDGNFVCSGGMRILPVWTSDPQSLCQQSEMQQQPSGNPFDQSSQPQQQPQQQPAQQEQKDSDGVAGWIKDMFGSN
# Procedure: as §3
# PBP3 = details: cited from earlier work
# Excerpt: (§2) Bacteria generally have at least one bifunctional (GTase/TPase) PBP of class A and one monofunctional (TPase only) PBP of class B ([2], [13]). E. coli contains three aPBPs: PBP1a, 1b, and 1c, and two bPBPs: PBP2 and PBP3, the latter being involved in cell elongation and division, respectively ([14]). PBP1a and PBP1b are major PG synthases and at least one of them is required for cell viability ([15]).
# FtsBLQ = details: cited from earlier work
# Excerpt: In contrast, no significant change in the FA sig ...
# PBP1b [6] = target: T1, PBP1b; details: compared with the WT protein; cited from earlier work
# Excerpt: The stimulation of PBP1b in vitro by FtsN is well-established ([5], [28]).
# PBP1b [7] = target: T1, PBP1b; details: cited from earlier work
# Excerpt: as §2
# E. coli = details: residue change W83L; cited from earlier work
molecule,measurement,setting,value
B1,restoration of growth of EJ801 at the nonpermissive temperature,[1],unable to rescue E. coli EJ801 at 42 °C
same,cell length L,"[2]; EJ801 after 1 h at 42 °C, n = 250, phase contrast, ImageJ/ObjectJ",6.14 ± 1.84
same,cell phenotype,[2]; EJ801 at 42 °C (double mutant: after 1 h),mild elongated phenotype
same,GTase activity of mutant compared with WT protein,PBP1b^R141A/R397A,minor or no difference in the GTase activity compared with the WT protein
same,GTase activity after incubation at 42 °C,[3],not affected
same,Bocillin-binding activity after incubation at 42 °C,[4],not affected
B2,effect on TPase activity of PBP1b (S2d hydrolysis),TPase domain of PBP1b,no effect
same,concentration required for stimulation of the GTase activity of PBP1b,PBP1b [5],~1000 nM
same,effect on the activity of PBP3 (literature),PBP3,no effect on the activity of PBP3
same,interaction with FtsBLQ (literature),FtsBLQ,absence of strong interaction
B3,interaction with PBP1b (literature),PBP1b [6],reduced compared with the WT protein
same,stimulation of PBP1b activity in vitro (literature),PBP1b [7],less able to stimulate PBP1b activity
same,suppression of FtsBLQ-mediated inhibition of PBP1b GTase activity (literature),PBP1b [7],less able to stimulate PBP1b activity and to suppress FtsBLQ-mediated inhibition of PBP1b GTase activity in vitro
same,FtsN activity in vivo (literature),E. coli,impairs FtsN activity in vivo
